Source: the domain aggregation screens of Martell et al. (2025)

Test: soluble fraction after stress (log2 fold change); higher = more stays soluble; pooled small domains, quantitative proteomics
Details: stress: 75 degC
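Note: 20 min heating vs room temperature control held 20 min.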

| Sequence | soluble fraction (log2) |
| --- | --- |
| HMQERTVVKGVVVQVSRDEAYVDIGYKQEIPVSKRDLAVPAPDDARDVVKVGDEIDVYIKSLGGDNGG | 0.109 |
| HMQESTPGEGYKWREDVLLRVMSQNGIDESLRDEFVRHAVNYDIDDNMYLKKAEIESAAEAWVLENS | 0.172 |
| HMQESVTVSAQALRRLLEKGDGDAALLYLALLRHHGTIQPRALAGELRWERPRIEAAEEALRQMGLIA | -0.48 |
| HMQETMTNDEVISLTKAGLSSSIIIGKIRSSATNFDLSTDSLIKLKQAGVSDETVAAMLEAKS | 0.0249 |
| HMQGAARGMLFAQAQRWMTKFRIDPQQADRITQAALDPAQTDAILREVRRGYGPSAERALRGIIRRARRA | -1.94 |
| HMQGEAMQETVKKLDAFLQDNSVSMSALARALGVSPSLISQFRSGSYKGDSQAIAAKINSYIDNHNKKSK | -0.0127 |
| HMQGEKDDLWREVLDNPDAWWDNRERKNAPGGNPRYPDFKHKDSQTPLWIESRDTPQWAIDALL | 0.259 |
| HMQGNGKVATELLKDIIASDNLYINAMRMLVMHYNSKGTNQVEMVKLLHNILDLVPDDEYANEILKSAKKA | -0.0872 |
| HMQGPDPYAVLGIDRHADERAIKRAYRKLISEHHPDRLGDLPEDMRKRAESRASEINAAYDRIKEARGF | 0.0522 |
| HMQGQVLQETARKARSQLDSEIPGFNDALYQNLIKSSENYGYKAEEVAQWVDPRAIKVLNDAYQFQQLKAG | -0.172 |
| HMQGTTTELLIQKSALYEELNDPEKALNAMFDAFEMDSLNVNVLHRIVSLLLDKEENEKAILYNQLIIDH | 0.0862 |
| HMQHQSGLKSGEFEAISQQLQALLKENPLSLQEIKDKMQVTENHLIKVVSYLVSEEIIRQENGYLK | -0.976 |
| HMQIAGLDDIDNRIIDLLLKNGRASYSEIGAAVGLSRTAAKNRIRALEASGIIRGYQAILDPQA | -0.708 |
| HMQIDDSVELSAIVEKLLAANPEQVEQLKNGKTKVLGYFVGLAMKETQGRANPQKVNELIQTHL | -0.519 |
| HMQIDRLFDIVYTLLRKKSATAAELAERFGVSKRTILRDIETLSVAGIPILTSPGKGGGVSISSSF | -0.892 |
| HMQIIETTVGRVLFNEKVPEAAGYINEVLTKKSLRDIIHGILKKTSVPETAAFLDEIKSLGYNFAF | 0.0925 |

| Sequence | soluble fraction (log2) |
| --- | --- |
| HMQIIEVPYSEFLKKLESGQISEVSRDSYQIVFTDRSQPPIIYKTGLMEDPGLVDKMQEAGVTFTSP | 0.256 |
| HMQIKNVDYGTFLDMLDEKNVKEVEIEDEQIVFTDNADPTGYYTTGRMEDPDLVDRLHNSGATFSAI | 0.134 |
| HMQILLASHAELAKGILSAVELIAGTQQNLKAYSAYTEAVDVHFKDQMLQDLNKMDPEDEVIL | 0.137 |
| HMQINLSEWVLAAREYAGPEMTQEKLAEHLGRTKANVSAMENGRSKPSFEQMMEIHRVTGYPLPYQ | -0.303 |
| HMQISDAGALLDAVRRVLAENPAQVEQFRAGKEKVMGFLVGQVMRATGGKANPQMLNDVLREELS | -0.196 |
| HMQISDEGELSGIVRKIIDANPQSVADYKAGKKKAIGFLVGQIMIETKGRANPASVNELLIKKLE | -0.434 |
| HMQISDNTILEDAVSRIIDENPKSVSDYFQGKEAVVGFFIGQIMRETKGTANPKIAREIVISHLEAI | -0.576 |
| HMQISGIHLYERRITKDDEWAERKLSEISLAGSLVILILRNEHVVIPNGETVLKENDLLYISD | -3.66 |
| HMQISGSEELEKIVQTVLEKNTDVVEEYKSGKTKVFAFLMGQVMKESRGKANPRLAKDILEKFLA | -0.429 |
| HMQITAPVQKIDGVEYYMHKVEQGQTLYSISKLYNVGVKEIQKANQLGTEGIQLGQVLKVRKGG | -0.2 |
| HMQIYLTPEQFKIIDFMEQMGKITVKDVMDILNIPKRTAQLHLQKLKTLKMIAQTGKGPSSAYLL | -1.11 |
| HMQKDAYVPDIISKLKSSRMIVVEGTIYPLLTRLKNTGLLSYRWEESLQGPPRKYYSITEQG | 0.268 |
| HMQKDYKTRLQEYYAKVGKKVNYMDSSTGPDHDKKFQTQVFLDKEIIGVGEGKSKKSSQQEAAKQALEKI | 0.267 |
| HMQKFINQEHEKAYNLMLEKDYQQALKIFDDLIYLFPNEANLLSDRGVIFIHLNKKEAALQDFDQAVF | -1.97 |
| HMQKIEKVDYGTFLKMIENGEIDQVNLTEKKISFTTDKDAETVYETGRVEDPNIVDRLYQADVEFTQEI | 0.598 |
